Measurements published in the nanobody polyreactivity screen of Harvey et al. (2022).

test: yeast display, Sf9 membrane polyspecificity reagent, FACS + sequencing; frameworks hold sequencing errors
Procedure, shortened: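 Genes from sorted yeast were amplified by colony PCR, read by MiSeq 2 × 250 sequencing and filtered on CDR length. These cells carried a synthetic nanobody library in Saccharomyces cerevisiae BJ5465 and were sorted by FACS into low and high (top ~1%) gates on anti-HA and streptavidin fluorescence. Polyreactivity is labelled according to the gate of origin.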

Row | Sequence | polyreactivity (PSR sort gate)
1 | QVQHVESGGGLVQAGGSRRLSCAASGSTFYGYAMGWYRQAPGKEREFVAAITTSGGSTYYADSVKGRFTISRDNANNTVYLQMNSLKPEDTAVYYCAADGFYYDDGYWGQGTQVTVSS | low polyreactivity
2 | QVQHVESGGGLVQAGRSLRLICAASGSTFLEYAMGWYRQAPGKERELVASISWSGGSTNYADSVKGRFTFSRDNAKNTVYLQMNSLKPEDTAVFYCNARGWSVVSSRYGYWGQGTQVTVSS | low polyreactivity
3 | QVQHVESGGGLVQARGSLRLSCSASGVIFYNYAMGWSRQAPGKEREFVAAISGSGGSTYYADSVKGRFTISRDNAKNTVYLQMNSLKPEDTAVYYCAVRQRYGPARYDYWGQGTQVTVSS | high polyreactivity
4 | QVQHVESGGGLVQGGGSLRLSCAASGSTFYAYAKGWYRQARGKERELVAVITSSGSTYYADSVKGRFTISRDNAKNTDYLQMNSLKAEDTAVYYCAAKRLSQSRRTQYRTRYQPMYYWGQGTQVTVSS | high polyreactivity
5 | QVQHVESGGGVVQAGGSLRLSCAASGSIFSRYTMGWYRQAPGKERELVAAITSSGGRTYYADSVKGRFTISRDNAKNTVYLQMNSLKPEDTSVYYFDARIPKQQGYGYWGQGTQVTVSS | high polyreactivity
6 | QVQHVESGGRLVQAGGSLRLICAASGRTFAPYAMGWYRQAPGKVRELVARITWSGTDTYYADSVKGRFTISRDNAKNTVYLQMNSLKPEDTAVYYCAADARYSRRYYYWGEGTQVTVSS | low polyreactivity
7 | QVQHVESGRGLVQAGCSLPLSCAASGFTFLAYAMGWYRQAPGKETELVAAISRSGGRTYYADSVKWRFTISRDNAKNTVYLQMNSLKPEDTAVYYCAKRVLTHPGDDYWGQGAQVTVSS | high polyreactivity
8 | QVQHVESGRGLVQAGGSLRLSCAASGSIQGGNARGCSSQAPGKESELVAAITFSGGGTYYADSVKGRLTISRDNAKNTVYLQMNSVKPEDTAVYYCAADIDGYTYEFDYWGQGTQVTVYS | low polyreactivity
9 | QVQHVESGRGLVQAGVSLRLSCAASGIFFGAYAMGWYRQAPGKEREFVAAISRSGGSTYYADSVKGRFTISRDYAKNTVYFQKNSLKPEDSAVYYCNALAKYHYYLGQGTQVTVSS | high polyreactivity
10 | QVQHVESGVGLVQAVGSLRLSCAASGLTFKYYAMGWYRQAAVKEWELVARLSRTGGSTNYADSVKGRFTISRDNAKNTLYLQMNSLKPEDTAVSYCNTQFSYSSAPPFWYTKMYYWGQGTQVTVSS | high polyreactivity
11 | QVQHVESRGGLVQAGGSLRLRCAASGRIFSHYAMGWYRQAPGKERELVAAITSDGSTNYADSVKGRFTISRDNAKNTVYLQMNSLKPEDTAVYYCAKYVHIPYYYYLFGSYDYWGQGSQVTVSS | low polyreactivity
12 | QVQHVESRGGLVQAGGSLRLSCAASGIIFSRNAMGWSRKAPGKERELLSGITSSGGTTYYADSVKGRFTISRDNAKNTVYLQMNSLKAEDTAVYYCAAYSTQNYSYRRYYYWGQGTQVTVSS | high polyreactivity
13 | QVQHVESRGGLVQAGGSLRLSCAASGLIFTCNAMGWYRQAPGKERELVAAISTGGSTSYADSVKGRFTIARDNAKNTVYLQMNSLKPEDTAVYYCARDSSIWSHGSWYDYWGQGTQVTVSS | low polyreactivity
14 | QVQHVESRGGLVQAGGSLRLSCAASGRTFFNNVMGWYRQAPGKERELVAAISKSGTRTYYADSVKGRFTISRDNAKNTVYLQMNSLKPEDTAVYYCATGQYLRTSRYYYWGQGTQVTVSS | high polyreactivity
15 | QVQHVESRGGLVQAGGSLRLSCAASGRTFFWYAMGWYRQAPGKERELVADISSSGGSTYYADSVKGRFTISRDNAKNTVYLQMNSLKPEDTAVYYCAALSPWWRGGYNYWGQGTQVTVSS | high polyreactivity
16 | QVQHVESRGGLVQAGGSLRLSCAASGSIFGYYGMGWYRQAPGKERELVATITSGGSTNYADSVKGRFTISRDNAKNTVYLQMNSLKPEDTAVYYCARQYGYQPERYGYWGQGTQVTVSS | low polyreactivity
